Data taken from the supplement of paper PMC9170038.

System: MS2 coat protein
Experiment: apparent KD of MS2 coat protein; designed switch direction (-1 OFF switch, 1 ON switch): -1; higher = weaker reporter binding
In short: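 Designed RNA switches were transcribed on Illumina chips by stalled E. coli RNA polymerase and titrated with SNAP-549-labelled MS2 coat protein from 0.7 or 1.5 nM, doubling to 3 µM. Step length ran from 0.8–1.5 h at the lowest concentration to 10–20 min at the highest. The apparent KD is the median over clusters for each design, from curve-fitted normalised cluster fluorescence.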

[1] = Eterna round: R95, input ligand: microRNA oligo, concentration not stated
[2] = Eterna round: R95, input ligand: FMN 200 uM
[3] = Eterna round: R95, input ligand: none
[4] = input ligand: microRNA oligo, concentration not stated

Row | Sequence | apparent KD of MS2 coat protein [1] | apparent KD of MS2 coat protein [2] | apparent KD of MS2 coat protein [3] | apparent KD of MS2 coat protein (input ligand: FMN 200 uM) | apparent KD of MS2 coat protein (input ligand: none) | apparent KD of MS2 coat protein [4]
1 | GGGUUACAUGAGGAUCACCCAUGUGAGGAUAUGAUACUAUGUACUUCGGUACAUAGUAUCAGAAGGCACAUAAA [Ex1-3: 19] (puzzle: Exclusion 1) | 121 nM | – | – | – | – | –
2 | GACCGGACGUGGUCUGGUAACAUGAGGAUCACCCAUGUAGGUCUAAGAACAAGCCUUUUGCACGCUCGUCUUAUAUU [JR_SV3TOV1_Sub061] (puzzle: Sensor v3, turn-off variant 1) | 56.5 nM | 64.4 nM | 88.2 nM | – | – | –
3 | ACGUAUAGAGGAUAUAGUGAAUAUUACAUGAGGAUCACCCAUGUUCUUCAAAGCAUAUUCCUAGAAGGCUAAUGAA [EX-5 Malc#12] (puzzle: Exclusion 5) | 44.4 nM | 113 nM | 56.4 nM | – | – | –
4 | UUUAAUUUUUUUUUUUUACAAGCUUUUUGCUCGUCUUAUACAUGAGGAUCACCCAUGUGGGUAAAGGGUAAAUUAUC [JMF 80] (puzzle: Sensor v3, turn-off variant 2) | 50.9 nM | 23 nM | 20.9 nM | – | – | –
5 | GGGUGACAUGAGGAUCACCCAUGUCAGGAUAUGGGCCCGGGCCCGAAAGGGCCCGGGCCCAGAAGGGACUGCCC [-52, -51 kcal, 22%A] (Eterna round: R97, puzzle: Exclusion 1) | – | – | – | 151 nM | 46.5 nM | –
6 | UUUUCACAUGAGGAUCACCCAUGUGAGGAUAUGGAUUCGCUGGCCGUAGCCAGUGGAUCCAGAAGGCGCAUGAU [JL-ex1-4.06] (Eterna round: R97, puzzle: Exclusion 1) | – | – | – | 36 nM | 32.8 nM | –
7 | GGGCUUCGAGUCAGGAUAUAAGGCCGCUGGCCCAUUUAGAAGGGACUUGAGGAUCACCCAAGUCACCACGGACG [Geceisbi] (Eterna round: R97, puzzle: Brourd's mod of Exclusion 4) | – | – | – | 19.3 nM | 16.8 nM | –
8 | GCGGACUAGAACGUGAGUUCUGAGACAUGAGGAUCACCCAUGUAGGAUAUCGAUUCGAAACGAAUCGAGAAGGGCAUAGUCCGC [JL denovo 11] (Eterna round: R96, puzzle: Exclusion NG 3) | – | – | – | 15.2 nM | 17.7 nM | 14.7 nM
9 | UGGCUACCUUGGUGCUCUACAAGCUUUUUGCUCGUUUUAACAUGAGGAUCACCCAUGUCUAGUGGAUCUGAUCGGGC [JL ViennaUCT Isreen mod 1] (puzzle: Sensor v3, turn-off variant 2) | 139 nM | 62.1 nM | 62.7 nM | – | – | –
10 | GGUUGGCGAGGAUAUACAUGAGGAUCACCCAUGUGAGAGAAAACAGUGAGGAAGAAAAGUAGAAGGCGCUGACG [salish99_ex3_r3_024] (puzzle: Exclusion 3) | 52.6 nM | 466 nM | 48 nM | – | – | –
11 | AGUAGUUCAGGAUAUGAUGAAGAGAACAUGAGGAUCACCCAUGUUGCAUCGUUUUUAUCAUCAGAAGGGAAUAACU [JR_Ex5_Sub085] (Eterna round: R97, puzzle: Exclusion 5) | – | – | – | 12.7 nM | 13.1 nM | –
12 | GGUUGGCGAGGAUAUACAUGAGGAUCACCCAUGUGAGAGAUACUAGUGAGGUCGAUUAGUAGAAGGCGCUGACG [JL-ex3-2.01 salish99 mod] (puzzle: Exclusion 3) | 31.1 nM | 174 nM | 32.2 nM | – | – | –
13 | UUUUUAUAUGAAGGAUAUACUUAACAUGAGGAUCACCCAUGUGGUGUUGUGAGUGAGUGAGUUUAGUAGAAGGUCAAUUCUUUG [JMF's solution 84] (Eterna round: R96, puzzle: Exclusion NG 2) | – | – | – | 397 nM | 347 nM | 344 nM
14 | UCAUGUAUGUAGGAUAUCGAUGUCCUUGGACAUCGAGAAGGACGUACAUGAGGAUCACCCAUGUAACUUGCAUG [Exclusion 6 - B - 11:d] (puzzle: Exclusion 6) | 18.7 nM | – | – | – | – | –
15 | UUACAAUGUCACUUACAAGCUUUUUGCUCGUCUUAUAUUACAUGAGGAUCACCCAUGUAGAUCAUGUGGCGUGACCU [JL ViennaUCT Maridi mod 10] (puzzle: Sensor v3, turn-off variant 2) | 46.7 nM | 145 nM | 151 nM | – | – | –
16 | CCGGAAAUGAAGGAUAUAGGUGUCGAUAGACACCUAGAAGGUCAUACAUGAGGAUCACCCAUGUGUCCUACCGG [Fiskers Ex 6 - 7] (puzzle: Exclusion 6) | 13.9 nM | – | – | – | – | –
17 | GAUUAUGCGAGCUUUAGGGACAUGAGGAUCACCCAUGUUCGUCUUAUUAGUCUAGGUGCACUAACAUACCUAAAUCU [JMF 35] (puzzle: Sensor v3, turn-off variant 1) | 36 nM | 20.7 nM | 21.3 nM | – | – | –
18 | GCCAGAGCAGGAUAUUCAAUAUCACACAUGAGGAUCACCCAUGUCUGGCGAAAGCUAGAGGGAGAAGGGCUCUGGC [Mat - Exclusion 5 - Eli mod - D97] (puzzle: Exclusion 5) | 38.8 nM | 17.9 nM | 55.2 nM | – | – | –

Row | Sequence | apparent KD of MS2 coat protein [1] | apparent KD of MS2 coat protein [2] | apparent KD of MS2 coat protein [3] | apparent KD of MS2 coat protein (input ligand: FMN 200 uM) | apparent KD of MS2 coat protein (input ligand: none) | apparent KD of MS2 coat protein [4]
19 | UUAUAGGCAGGAUAUACAUGAGGAUCACCCAUGUAAAUUUUUCGUUUAACUUGAAUGUGUAGAAGGGCCAUAUU [Ex3 #57] (Eterna round: R97, puzzle: Exclusion 3) | – | – | – | 22.3 nM | 21.6 nM | –
20 | ACAAGCUUUUUGCAAUUUAGUUUUGUUGCUUCGUAGGUAACAUGAGGAUCACCCAUGUAAGAGUGAUGUCGUCUUAU [JR_SV3TOV2_Sub084] (puzzle: Sensor v3, turn-off variant 2) | 141 nM | 520 nM | 609 nM | – | – | –
21 | CUCGGACAUGAGGAUCACCCAUGUGAGGAUAUGGUGCUAUCGUCAUUAGACGAUUGCGUUAGAAGGCACAAAUG [LRO-Excl1-28] (puzzle: Exclusion 1) | 35.2 nM | – | – | – | – | –
22 | GAACUCGUGAAGGAUAUCCGUACCAAAGCGGCAGGAGAAGGUCACACAUGAGGAUCACCCAUGUGGUACCUCGU [Xeinbira] (Eterna round: R96, puzzle: Exclusion 6) | – | – | – | – | – | 23.6 nM
23 | UACACGGUAGGAUAUACGUAGAUGCAGGUUCGUGUGGUGCUACAUGAGGAUCACCCAUGUAGAAGGGCCAACGU [Mod 6 R3 JL-ex2-2.29 - Jieux - Exclusion 2] (Eterna round: R97, puzzle: Exclusion 2) | – | – | – | 15.1 nM | 13.1 nM | –
24 | UUAUAAAGUGUGAGGAUAUGCUGGUCCUUAGAUCAGCAGAAGGCACAUGAGGAUCACCCAUGUAAUAUAUUUUU [Mat - Exclusion 4 - JL Mod - D42] (puzzle: Brourd's mod of Exclusion 4) | 33.9 nM | – | – | – | – | –
25 | CGUACUGAAGUGAGGAUAUUGUCUCGGAUACGAAACAAGAAGGCACAUGAGGAUCACCCAUGUUGACAGUACGA [Malc #30 mod 7] (puzzle: Brourd's mod of Exclusion 4) | 15 nM | – | – | – | – | –
26 | UCAAACAUCGUUAGGAUAUGCUGGACUAAAUAGUGGCAGAAGGAACAUGAGGAUCACCCAUGUGCCUCGAUUGC [Eternabot (L2) Solution 26] (Eterna round: R97, puzzle: Brourd's mod of Exclusion 4) | – | – | – | 17.4 nM | 13.4 nM | –
27 | UAGAUACAUGAGGAUCACCCAUGUGAGGAUAUGAGAAUUAUAUUAAAUGAAUGAAUUUUCAGAAGGCACAAAGG [JR_Ex1_Sub051] (Eterna round: R97, puzzle: Exclusion 1) | – | – | – | 482 nM | 221 nM | –
28 | ACUGUUUGAUUCCUCUUAUACAUGAGGAUCACCCAUGUUAUCGAGGAUAUGCAUUAGAGUGUUUAGCAGAAGGCGAUGUAAUUG [JR_ExcNG3_Sub033] (Eterna round: R96, puzzle: Exclusion NG 3) | – | – | – | 112 nM | 17.9 nM | 8.68 nM
29 | AGAGUGAGAGGAUAUUGGAUUCCUAACAUGAGGAUCACCCAUGUAGUACGGUGCUACUGACAAGAAGGCUCACUCU [etrenacac ex5r4 #7] (Eterna round: R97, puzzle: Exclusion 5) | – | – | – | 54.5 nM | 76.1 nM | –
30 | AUAAUGUAAGGAUAUCAGUCGUACAGCUGCGGCUGUACGACUGAGAAGGUACAUGAGGAUCACCCAUGUGAUCA [E4/8-A3] (Eterna round: R97, puzzle: Exclusion 4) | – | – | – | 104 nM | 1380 nM | –
31 | GGCCUGUAAGGAUAUUAGUAGUAGUCAGAAUAGACUAUUACUGAGAAGGUACAUGAGGAUCACCCAUGUUGGCC [Eli x4 4.06] (Eterna round: R97, puzzle: Exclusion 4) | – | – | – | 17.7 nM | 14 nM | –
32 | GGCCUGGAAGGAUAUACAUGAGGAUCACCCAUGUGAAGCCGGUGCAAAUUGACACGAUGUAGAAGGUCCAGCCG [Eternabot (L1) Solution 92] (Eterna round: R97, puzzle: Exclusion 3) | – | – | – | 467 nM | 172 nM | –
33 | AGAUGGCGAGGAUAUACAUGAGGAUCACCCAUGUGAGAGAUUAGAGUGAGGAAGAAAAGUAGAAGGCGCUGUCA [Mat - Exclusion 3 - Mod of Salish D18] (puzzle: Exclusion 3) | 98.4 nM | 167 nM | 144 nM | – | – | –
34 | UUAUUAAAUGUAGGAUAUGCAUAUUAUUAUUAUGCAGAAGGACAUGAGGAUCACCCAUGUAUAUUAUUAUUAUUUAUUAUAUAU [Title] (Eterna round: R96, puzzle: Exclusion NG 1) | – | – | – | – | – | 36.1 nM
35 | UAAUGUAUAUAGGAUAUCUAGCUGGAUACAGCUAGAGAAGGAUGUACAUGAGGAUCACCCAUGUAAAUCAGUGA [Ex6/14-B3] (Eterna round: R97, puzzle: Exclusion 6) | – | – | – | 206 nM | 39.3 nM | –
